Measured values reported in the supplement of paper PMC10567573.

B1: PKD2L1 (parent)
chain: YSGGGYYLDLPGSRQGSAEALRAL

Variants of: B1
Experiment: protein stability index of a GFP-peptide fusion (GPS, HEK-293T) (PSI 1-6); higher = more stable
Conditions: c terminus: a fixed tail appended
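Further: lentivirally expressed fusions sorted by FACS into six bins by GFP to DsRed ratio, PSI derived from sequencing read proportions per bin multiplied by bin number.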

Going from YSGGGYYLDLPGSRQGSAEMLRAL to YSGGGYYLDLPGSRQGSAEPLRAL, the protein stability index rises from 1.81 to 2.62.

First: YSGGGYYLDLPGSRQGSAERLRAL
Second: YSGGGYYLDLPGSRQGSAELLRAL
The protein stability index of the first is lower: 1.29 for the first, 1.72 for the second.

Compared with YSGGGYYLDLPGSRQGSAETLRAL, YSGGGYYLDLPGSRQGSAENLRAL is lower in protein stability index: 2.65 for the first, 2.02 for the second.

First: YSGGGYYLTLPGSRQGSAEALRAL
Second: YSGGGYYLKLPGSRQGSAEALRAL
The protein stability index of the first is higher: 3.34 for the first, 2.59 for the second.

First: YSGGGYYLWLPGSRQGSAEALRAL
Second: YSGGGYYLLLPGSRQGSAEALRAL
The protein stability index of the first is lower: 2.87 for the first, 4.93 for the second.

Going from YSGGGYYLSLPGSRQGSAEALRAL to YSGGGYYLALPGSRQGSAEALRAL, the protein stability index rises from 1.83 to 4.81.

Going from YSGGGYYLFLPGSRQGSAEALRAL to YSGGGYYLRLPGSRQGSAEALRAL, the protein stability index falls from 3.62 to 2.

Compared with GSGGGYYLDLPGSRQGSAEALRAL, DSGGGYYLDLPGSRQGSAEALRAL is higher in protein stability index: 3.66 for the first, 4.08 for the second.

Going from TSGGGYYLDLPGSRQGSAEALRAL to MSGGGYYLDLPGSRQGSAEALRAL, the protein stability index falls from 3.58 to 2.99.

First: QSGGGYYLDLPGSRQGSAEALRAL
Second: RSGGGYYLDLPGSRQGSAEALRAL
The protein stability index of the first is higher: 3.75 for the first, 3.13 for the second.

First: KSGGGYYLDLPGSRQGSAEALRAL
Second: HSGGGYYLDLPGSRQGSAEALRAL
The protein stability index of the first is lower: 3.16 for the first, 3.5 for the second.

Compared with ASGGGYYLDLPGSRQGSAEALRAL, PSGGGYYLDLPGSRQGSAEALRAL is higher in protein stability index: 3.15 for the first, 3.49 for the second.

Compared with YSGGGYYLDLPGSRQGSAKALRAL, YSGGGYYLDLPGSRQGSAAALRAL is lower in protein stability index: 1.98 for the first, 1.64 for the second.

Going from YSGGGYYLDLPGSRQGSAWALRAL to YSGGGYYLDLPGSRQGSARALRAL, the protein stability index rises from 1.74 to 2.16.

Compared with YSGGGYYLDLPGSRQGSALALRAL, YSGGGYYLDLPGSRQGSASALRAL is lower in protein stability index: 1.84 for the first, 1.49 for the second.

First: YSGGRYYLDLPGSRQGSAEALRAL
Second: YSGGQYYLDLPGSRQGSAEALRAL
The protein stability index of the first is higher: 2.67 for the first, 1.39 for the second.

First: YSGGSYYLDLPGSRQGSAEALRAL
Second: YSGGNYYLDLPGSRQGSAEALRAL
The protein stability index of the first is higher: 1.83 for the first, 1.76 for the second.

Compared with YSGGAYYLDLPGSRQGSAEALRAL, YSGGKYYLDLPGSRQGSAEALRAL is higher in protein stability index: 1.14 for the first, 2.65 for the second.

First: YSGGFYYLDLPGSRQGSAEALRAL
Second: YSGGVYYLDLPGSRQGSAEALRAL
The protein stability index of the first is higher: 2.17 for the first, 2.1 for the second.

Going from YSGGHYYLDLPGSRQGSAEALRAL to YSGGGYYLDLPGSRQGMAEALRAL, the protein stability index rises from 2.28 to 2.3.

Going from YSGGGYYLDLPGSRQGTAEALRAL to YSGGGYYLDLPGSRQGVAEALRAL, the protein stability index falls from 2 to 1.61.

First: YSGGGYYLDLPGSRQGGAEALRAL
Second: YSGGGYYLDLPGSRQGLAEALRAL
The protein stability index of the first is higher: 3.5 for the first, 2.13 for the second.

First: YSGGGYYLDLPGSRQGPAEALRAL
Second: YSGGGYYLDLPGSRQGQAEALRAL
The protein stability index of the first is lower: 2.32 for the first, 3.08 for the second.

Compared with YSGGGYYLDLPGSRQGSAEALRAN, YSGGGYYLDLPGSRQGSAEALRAK is higher in protein stability index: 2.1 for the first, 2.91 for the second.

Compared with YSGGGYYLDLPGSRQGSAEALRAM, YSGGGYYLDLPGSRQGSAEALRAV is higher in protein stability index: 1.63 for the first, 2.33 for the second.

First: YSGGGYYLDLPGSRQGSAEALRAG
Second: YSGGGYYLDLPGSRQGSAEALRAD
The protein stability index of the first is higher: 2.63 for the first, 1.6 for the second.

Going from YSGGGYYLDLPGSRQGSAEALRAQ to YSGGGEYLDLPGSRQGSAEALRAL, the protein stability index rises from 1.17 to 3.37.

Compared with YSGGGCYLDLPGSRQGSAEALRAL, YSGGGAYLDLPGSRQGSAEALRAL is lower in protein stability index: 2.75 for the first, 2.27 for the second.

First: YSGGGWYLDLPGSRQGSAEALRAL
Second: YSGGGVYLDLPGSRQGSAEALRAL
The protein stability index of the first is higher: 5.5 for the first, 2.24 for the second.

Going from YSGGGDYLDLPGSRQGSAEALRAL to YSGGGQYLDLPGSRQGSAEALRAL, the protein stability index rises from 2.57 to 2.83.

Compared with YSGGGNYLDLPGSRQGSAEALRAL, YSGGGHYLDLPGSRQGSAEALRAL is lower in protein stability index: 2.83 for the first, 2.16 for the second.

Compared with YSGGGRYLDLPGSRQGSAEALRAL, YSGGGGYLDLPGSRQGSAEALRAL is lower in protein stability index: 2.64 for the first, 1.84 for the second.

Going from YSGGGFYLDLPGSRQGSAEALRAL to YSGGGYYLDLPGSRQGSDEALRAL, the protein stability index rises from 2.25 to 2.65.

Going from YSGGGYYLDLPGSRQGSWEALRAL to YSGGGYYLDLPGSRQGSIEALRAL, the protein stability index falls from 1.61 to 1.55.

Going from YSGGGYYLDLPGSRQGSQEALRAL to YSGGGYYLDLPGSRQGSYEALRAL, the protein stability index falls from 2.15 to 1.75.

First: YSGGGYYLDLPGSRQGSLEALRAL
Second: YSGGGYYLDLPGSRQGSREALRAL
The protein stability index of the first is higher: 2.12 for the first, 1.71 for the second.

Going from YSGGGYYLDLPGSRQGSFEALRAL to YSGGGYYLDLPGSRQGSHEALRAL, the protein stability index rises from 1.57 to 1.61.

Compared with YSGGGYYLDLPGSRQGSNEALRAL, YSGGGYYLDLPGSRQGSGEALRAL is lower in protein stability index: 1.86 for the first, 1.81 for the second.

First: YSGGGYYLDLPGSEQGSAEALRAL
Second: YSGGGYYLDLPGSQQGSAEALRAL
The protein stability index of the first is higher: 1.75 for the first, 1.55 for the second.

First: YSGGGYYLDLPGSMQGSAEALRAL
Second: YSGGGYYLDLPGSGQGSAEALRAL
The protein stability index of the first is lower: 2.08 for the first, 2.24 for the second.

First: YSGGGYYLDLPGSWQGSAEALRAL
Second: YSGGGYYLDLPGSIQGSAEALRAL
The protein stability index of the first is lower: 2.36 for the first, 2.55 for the second.

First: YSGGGYYLDLPGSPQGSAEALRAL
Second: YSGGGYYLDLPGSFQGSAEALRAL
The protein stability index of the first is higher: 1.37 for the first, 1.32 for the second.

First: YSGGGYYIDLPGSRQGSAEALRAL
Second: YSGGGYYNDLPGSRQGSAEALRAL
The protein stability index of the first is higher: 2.77 for the first, 1.73 for the second.

First: YSGGGYYKDLPGSRQGSAEALRAL
Second: YSGGGYYDDLPGSRQGSAEALRAL
The protein stability index of the first is lower: 1.42 for the first, 1.99 for the second.

First: YSGGGYYYDLPGSRQGSAEALRAL
Second: YSGGGYYFDLPGSRQGSAEALRAL
The protein stability index of the first is lower: 2.03 for the first, 2.66 for the second.

Going from YSGGGYYLDLPGSRQGSAEARRAL to YSGGGYYLDLPGSRQGSAEAGRAL, the protein stability index rises from 1.25 to 1.89.

First: YSGGGYYLDLPGSRQGSAEAWRAL
Second: YSGGGYYLDLPGSRQGSAEAPRAL
The protein stability index of the first is lower: 1.29 for the first, 2.23 for the second.
